Data: PMC6056499, “A systematic dissection of sequence elements determining β-Klotho and FGF interaction and signaling” (Scientific Reports, 2018)

Target: human β-Klotho extracellular domain (aa1–992) fused with a 6 × His tag at the C-terminus (UniProt Q86Z14)
Test: solid-phase binding assay
Conditions: parent: est. 1.0; read off a plot

Sequence of human β-Klotho extracellular domain (aa1–992) fused with a 6 × His tag at the C-terminus (Q86Z14 53-992): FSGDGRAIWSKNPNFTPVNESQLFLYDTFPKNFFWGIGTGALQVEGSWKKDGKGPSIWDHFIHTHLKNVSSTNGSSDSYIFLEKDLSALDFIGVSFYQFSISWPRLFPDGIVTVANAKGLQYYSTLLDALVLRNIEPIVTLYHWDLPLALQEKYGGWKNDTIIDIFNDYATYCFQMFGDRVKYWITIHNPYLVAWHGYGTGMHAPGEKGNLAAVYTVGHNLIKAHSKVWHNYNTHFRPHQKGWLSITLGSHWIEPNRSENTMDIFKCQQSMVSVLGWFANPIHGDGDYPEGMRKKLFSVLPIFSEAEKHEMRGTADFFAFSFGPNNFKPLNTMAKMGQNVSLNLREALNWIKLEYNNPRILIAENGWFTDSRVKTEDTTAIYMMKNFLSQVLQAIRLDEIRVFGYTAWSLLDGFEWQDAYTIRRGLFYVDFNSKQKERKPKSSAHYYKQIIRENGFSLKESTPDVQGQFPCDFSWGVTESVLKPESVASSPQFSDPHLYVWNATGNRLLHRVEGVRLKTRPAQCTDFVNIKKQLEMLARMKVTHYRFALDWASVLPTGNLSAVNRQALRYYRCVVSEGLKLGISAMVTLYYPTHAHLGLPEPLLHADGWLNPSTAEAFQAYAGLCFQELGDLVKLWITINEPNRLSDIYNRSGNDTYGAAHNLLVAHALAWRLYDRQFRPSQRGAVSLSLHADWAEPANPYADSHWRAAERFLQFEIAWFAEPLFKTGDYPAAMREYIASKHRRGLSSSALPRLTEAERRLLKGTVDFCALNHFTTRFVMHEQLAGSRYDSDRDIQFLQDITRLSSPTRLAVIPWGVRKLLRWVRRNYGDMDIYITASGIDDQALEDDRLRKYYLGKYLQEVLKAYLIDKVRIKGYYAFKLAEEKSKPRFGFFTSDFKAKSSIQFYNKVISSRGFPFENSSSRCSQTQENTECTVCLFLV
Sequence of mature human FGF21 polypeptide fused with the human Fc fragment at the N-terminus (Fc-FGF21), wild type (from UniProt Q9NSA1) 189G-A (Q9NSA1 29-209, change not shown): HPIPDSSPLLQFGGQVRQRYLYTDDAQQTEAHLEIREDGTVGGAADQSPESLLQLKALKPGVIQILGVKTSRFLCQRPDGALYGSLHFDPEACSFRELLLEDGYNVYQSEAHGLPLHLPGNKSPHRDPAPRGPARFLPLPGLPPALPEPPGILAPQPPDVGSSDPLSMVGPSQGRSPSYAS
Sequence of mature human FGF21 polypeptide fused with the human Fc fragment at the N-terminus (Fc-FGF21), wild type (from UniProt Q9NSA1) 205P-R (Q9NSA1 29-209, change not shown): as above
Sequence of mature human FGF21 polypeptide fused with the human Fc fragment at the N-terminus (Fc-FGF21), wild type (from UniProt Q9NSA1) 198G-A (Q9NSA1 29-209, change not shown): as above
Sequence of mature human FGF21 polypeptide fused with the human Fc fragment at the N-terminus (Fc-FGF21), wild type (from UniProt Q9NSA1) 197V-A (Q9NSA1 29-209, change not shown): as above
Sequence of mature human FGF21 polypeptide fused with the human Fc fragment at the N-terminus (Fc-FGF21), wild type (from UniProt Q9NSA1) 178P-A (Q9NSA1 29-209, change not shown): as above
Sequence of mature human FGF21 polypeptide fused with the human Fc fragment at the N-terminus (Fc-FGF21), wild type (from UniProt Q9NSA1) 209S-R (Q9NSA1 29-209, change not shown): as above
Sequence of mature human FGF21 polypeptide fused with the human Fc fragment at the N-terminus (Fc-FGF21), wild type (from UniProt Q9NSA1) 201Q-A (Q9NSA1 29-209, change not shown): as above
Sequence of mature human FGF21 polypeptide fused with the human Fc fragment at the N-terminus (Fc-FGF21), wild type (from UniProt Q9NSA1) 176E-R (Q9NSA1 29-209, change not shown): as above
Sequence of mature human FGF21 polypeptide fused with the human Fc fragment at the N-terminus (Fc-FGF21), wild type (from UniProt Q9NSA1) 188V-R (Q9NSA1 29-209, change not shown): as above
Sequence of mature human FGF21 polypeptide fused with the human Fc fragment at the N-terminus (Fc-FGF21), wild type (from UniProt Q9NSA1) 169G-R (Q9NSA1 29-209, change not shown): as above
Sequence of mature human FGF21 polypeptide fused with the human Fc fragment at the N-terminus (Fc-FGF21), wild type (from UniProt Q9NSA1) 163R-A (Q9NSA1 29-209, change not shown): as above
Sequence of mature human FGF21 polypeptide fused with the human Fc fragment at the N-terminus (Fc-FGF21), wild type (from UniProt Q9NSA1) 165L-A (Q9NSA1 29-209, change not shown): as above
Sequence of mature human FGF21 polypeptide fused with the human Fc fragment at the N-terminus (Fc-FGF21), wild type (from UniProt Q9NSA1) 202G-A (Q9NSA1 29-209, change not shown): as above
Sequence of mature human FGF21 polypeptide fused with the human Fc fragment at the N-terminus (Fc-FGF21), wild type (from UniProt Q9NSA1) 164F-A (Q9NSA1 29-209, change not shown): as above
Sequence of mature human FGF21 polypeptide fused with the human Fc fragment at the N-terminus (Fc-FGF21), wild type (from UniProt Q9NSA1) 200S-R (Q9NSA1 29-209, change not shown): as above
Sequence of mature human FGF21 polypeptide fused with the human Fc fragment at the N-terminus (Fc-FGF21), wild type (from UniProt Q9NSA1) 176E-A (Q9NSA1 29-209, change not shown): as above
Sequence of mature human FGF21 polypeptide fused with the human Fc fragment at the N-terminus (Fc-FGF21), wild type (from UniProt Q9NSA1) 183P-R (Q9NSA1 29-209, change not shown): as above
Sequence of mature human FGF21 polypeptide fused with the human Fc fragment at the N-terminus (Fc-FGF21), wild type (from UniProt Q9NSA1) 177P-R (Q9NSA1 29-209, change not shown): as above
Sequence of mature human FGF21 polypeptide fused with the human Fc fragment at the N-terminus (Fc-FGF21), wild type (from UniProt Q9NSA1) 164F-R (Q9NSA1 29-209, change not shown): as above
Sequence of mature human FGF21 polypeptide fused with the human Fc fragment at the N-terminus (Fc-FGF21), wild type (from UniProt Q9NSA1) 199P-A (Q9NSA1 29-209, change not shown): as above

Substance: mature human FGF21 polypeptide fused with the human Fc fragment at the N-terminus (Fc-FGF21), wild type (from UniProt Q9NSA1) 208A-R
- ratio to parent: 9

Substance: mature human FGF21 polypeptide fused with the human Fc fragment at the N-terminus (Fc-FGF21), wild type (from UniProt Q9NSA1) 165L-A
- ratio to parent: 1

Substance: mature human FGF21 polypeptide fused with the human Fc fragment at the N-terminus (Fc-FGF21), wild type (from UniProt Q9NSA1) 181L-A
- ratio to parent: 0.5

Substance: mature human FGF21 polypeptide fused with the human Fc fragment at the N-terminus (Fc-FGF21), wild type (from UniProt Q9NSA1) 180I-R
- ratio to parent: 2.3

Substance: mature human FGF21 polypeptide fused with the human Fc fragment at the N-terminus (Fc-FGF21), wild type (from UniProt Q9NSA1) 184Q-A
- ratio to parent: 1.2

Substance: mature human FGF21 polypeptide fused with the human Fc fragment at the N-terminus (Fc-FGF21), wild type (from UniProt Q9NSA1) 189G-A
- ratio to parent: 0.8

Substance: mature human FGF21 polypeptide fused with the human Fc fragment at the N-terminus (Fc-FGF21), wild type (from UniProt Q9NSA1) 185P-A
- ratio to parent: 1.3

Substance: mature human FGF21 polypeptide fused with the human Fc fragment at the N-terminus (Fc-FGF21), wild type (from UniProt Q9NSA1) 205P-R
- ratio to parent: 220

Substance: mature human FGF21 polypeptide fused with the human Fc fragment at the N-terminus (Fc-FGF21), wild type (from UniProt Q9NSA1) 180I-A
- ratio to parent: 0.6

Substance: mature human FGF21 polypeptide fused with the human Fc fragment at the N-terminus (Fc-FGF21), wild type (from UniProt Q9NSA1) 171P-R
- ratio to parent: 1.2

Substance: mature human FGF21 polypeptide fused with the human Fc fragment at the N-terminus (Fc-FGF21), wild type (from UniProt Q9NSA1) 164F-A
- ratio to parent: 0.8

Substance: mature human FGF21 polypeptide fused with the human Fc fragment at the N-terminus (Fc-FGF21), wild type (from UniProt Q9NSA1) 199P-A
- ratio to parent: 1

Substance: mature human FGF21 polypeptide fused with the human Fc fragment at the N-terminus (Fc-FGF21), wild type (from UniProt Q9NSA1) 183P-R
- ratio to parent: 1

Substance: mature human FGF21 polypeptide fused with the human Fc fragment at the N-terminus (Fc-FGF21), wild type (from UniProt Q9NSA1) 176E-A
- ratio to parent: 0.5

Substance: mature human FGF21 polypeptide fused with the human Fc fragment at the N-terminus (Fc-FGF21), wild type (from UniProt Q9NSA1) 169G-R
- ratio to parent: 2.2

Substance: mature human FGF21 polypeptide fused with the human Fc fragment at the N-terminus (Fc-FGF21), wild type (from UniProt Q9NSA1) 182A-R
- ratio to parent: 1.4

Substance: mature human FGF21 polypeptide fused with the human Fc fragment at the N-terminus (Fc-FGF21), wild type (from UniProt Q9NSA1) 171P-A
- ratio to parent: 1.2

Substance: mature human FGF21 polypeptide fused with the human Fc fragment at the N-terminus (Fc-FGF21), wild type (from UniProt Q9NSA1) 176E-R
- ratio to parent: 1.6

Substance: mature human FGF21 polypeptide fused with the human Fc fragment at the N-terminus (Fc-FGF21), wild type (from UniProt Q9NSA1) 169G-A
- ratio to parent: 0.9

Substance: mature human FGF21 polypeptide fused with the human Fc fragment at the N-terminus (Fc-FGF21), wild type (from UniProt Q9NSA1) 177P-A
- ratio to parent: 1

Substance: mature human FGF21 polypeptide fused with the human Fc fragment at the N-terminus (Fc-FGF21), wild type (from UniProt Q9NSA1) 172P-A
- ratio to parent: 0.5

Substance: mature human FGF21 polypeptide fused with the human Fc fragment at the N-terminus (Fc-FGF21), wild type (from UniProt Q9NSA1) 178P-A
- ratio to parent: 0.7

Substance: mature human FGF21 polypeptide fused with the human Fc fragment at the N-terminus (Fc-FGF21), wild type (from UniProt Q9NSA1) 164F-R
- ratio to parent: 3

Substance: mature human FGF21 polypeptide fused with the human Fc fragment at the N-terminus (Fc-FGF21), wild type (from UniProt Q9NSA1) 185P-R
- ratio to parent: 1.6

Substance: mature human FGF21 polypeptide fused with the human Fc fragment at the N-terminus (Fc-FGF21), wild type (from UniProt Q9NSA1) 201Q-A
- ratio to parent: 0.6

Substance: mature human FGF21 polypeptide fused with the human Fc fragment at the N-terminus (Fc-FGF21), wild type (from UniProt Q9NSA1) 195S-R
- ratio to parent: 0.5

Substance: mature human FGF21 polypeptide fused with the human Fc fragment at the N-terminus (Fc-FGF21), wild type (from UniProt Q9NSA1) 178P-R
- ratio to parent: 1.2

Substance: mature human FGF21 polypeptide fused with the human Fc fragment at the N-terminus (Fc-FGF21), wild type (from UniProt Q9NSA1) 200S-R
- ratio to parent: 2

Substance: mature human FGF21 polypeptide fused with the human Fc fragment at the N-terminus (Fc-FGF21), wild type (from UniProt Q9NSA1) 188V-A
- ratio to parent: 200

Substance: mature human FGF21 polypeptide fused with the human Fc fragment at the N-terminus (Fc-FGF21), wild type (from UniProt Q9NSA1) 200S-A
- ratio to parent: 0.8

Substance: mature human FGF21 polypeptide fused with the human Fc fragment at the N-terminus (Fc-FGF21), wild type (from UniProt Q9NSA1) 201Q-R
- ratio to parent: 1

Substance: mature human FGF21 polypeptide fused with the human Fc fragment at the N-terminus (Fc-FGF21), wild type (from UniProt Q9NSA1) 209S-R
- ratio to parent: 1.6

Substance: mature human FGF21 polypeptide fused with the human Fc fragment at the N-terminus (Fc-FGF21), wild type (from UniProt Q9NSA1) 177P-R
- ratio to parent: 1.2

Substance: mature human FGF21 polypeptide fused with the human Fc fragment at the N-terminus (Fc-FGF21), wild type (from UniProt Q9NSA1) 188V-R
- ratio to parent: 950

Substance: mature human FGF21 polypeptide fused with the human Fc fragment at the N-terminus (Fc-FGF21), wild type (from UniProt Q9NSA1) 202G-A
- ratio to parent: 1.8

Substance: mature human FGF21 polypeptide fused with the human Fc fragment at the N-terminus (Fc-FGF21), wild type (from UniProt Q9NSA1) 197V-A
- ratio to parent: 90

Substance: mature human FGF21 polypeptide fused with the human Fc fragment at the N-terminus (Fc-FGF21), wild type (from UniProt Q9NSA1) 163R-A
- ratio to parent: 0.9

Substance: mature human FGF21 polypeptide fused with the human Fc fragment at the N-terminus (Fc-FGF21), wild type (from UniProt Q9NSA1) 184Q-R
- ratio to parent: 1.8

Substance: mature human FGF21 polypeptide fused with the human Fc fragment at the N-terminus (Fc-FGF21), wild type (from UniProt Q9NSA1) 170L-R
- ratio to parent: 1

Substance: mature human FGF21 polypeptide fused with the human Fc fragment at the N-terminus (Fc-FGF21), wild type (from UniProt Q9NSA1) 168P-R
- ratio to parent: 1.2

Substance: mature human FGF21 polypeptide fused with the human Fc fragment at the N-terminus (Fc-FGF21), wild type (from UniProt Q9NSA1) 187D-A
- ratio to parent: 14

Substance: mature human FGF21 polypeptide fused with the human Fc fragment at the N-terminus (Fc-FGF21), wild type (from UniProt Q9NSA1) 173A-R
- ratio to parent: 0.6

Substance: mature human FGF21 polypeptide fused with the human Fc fragment at the N-terminus (Fc-FGF21), wild type (from UniProt Q9NSA1) 198G-A
- ratio to parent: 0.5

Substance: mature human FGF21 polypeptide fused with the human Fc fragment at the N-terminus (Fc-FGF21), wild type (from UniProt Q9NSA1) 190S-A
- ratio to parent: 15

Substance: mature human FGF21 polypeptide fused with the human Fc fragment at the N-terminus (Fc-FGF21), wild type (from UniProt Q9NSA1) 179G-R
- ratio to parent: 1
